Here are results for 2 substances from patent US20180305451A1.

Assay [1] deals with putative molecular counterpart of HIDE1 on T cells. The assay can be described thus: FACS, tetramer on CD4+ T cells activated for 72 h.
Assay [2] has the same target. In words: flow cytometry on H9 human T cell line, live singlets; PE tetramer at 3 µg/well (60 µg/ml).
For assay [3] the target is unchanged. In words: flow cytometry on U937 human myeloid cell line, live singlets; PE tetramer at 3 µg/well (60 µg/ml); the text calls this no binding; Tetramer-EGFR in the same box reads 79.6.
The target is the same in assay [4]. In words: flow cytometry on H9 human T cell line, live singlets; negative control PE tetramer at 3 µg/well (60 µg/ml).

In assay [1], “HIDE1 tetramer (from UniProt A8MVS5 20-117)” came in with a fold increase in the Geo Mean compared to EGFR negative control of 3 fold. Further, the Geometric Mean (B2-A) turned out to be 731 in assay [2] and 86.2 in assay [3].
In assay [4], Tetramer-EGFR (from UniProt P00533) showed a Geometric Mean (B2-A) of 82.1.
